B1: TPR t1 (parent)
chain: GACCAAUCUGCCCUCAGAGCUCGAGAACAUCUUCGGAUGCAGAGGAGGCAGGCUUCGGUGGCGCGAUAGCGCCAACGUCCUCAACCUCCAAUGCAUCCCACCACAUGAUGAUGCCUGAAGAGCCUUGGUUUUUUG

Variants of: B1
Assay: polymerase ribozyme fitness, log enrichment relative to wild type (log ratio); higher = more active; in vitro selection for triplet polymerase activity
How it was run: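 A single round of triplicate in vitro selection, including frozen incubation at −7 °C, was applied to PCR-built, transcribed mutant libraries of each subunit of a heterodimeric triplet polymerase ribozyme. Illumina sequencing of input and output libraries retained genotypes with ≥10 input reads and ≥1 read per output. Fitness is the base-2 logarithm of genotype enrichment divided by wild-type enrichment, from inverse-variance-weighted replicate averages.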

| Variant | polymerase ribozyme fitness (log ratio) |
| --- | --- |
| C40U C56A A91G | -2.75 |
| C15A A24U C70U G77C G110C | -6.25 |
| C53G G113U | -2.22 |
| G45U C49U C115G | -3.11 |
| A27U G60C | -3.62 |
| G17A G69U A118G | 0.157 |
| C34A G48A | -3.24 |
| A6U G47A C62A C123A | -1.69 |
| A37U G45U C56U C70G C102G G113A U125A | -7.38 |
| G63C C123G | 0.737 |
| C22A C34U G36U G61C A111U | -6.58 |
| G44U G61C | -2.36 |
| C8A A37U C124A | 1.28 |
| C49G G71U | -1.7 |
| U14C G93A | -2.47 |
| U96G U109C | -4.85 |
| U9G A37C G44U | -1.47 |
| A6U G10A C22U C82A | -5.33 |
| C12G C70A A75U U112A G113U G120C U133G | -2.57 |
| C102U C114G | -4.58 |
| G19A G71C | -3.41 |

| Variant | polymerase ribozyme fitness (log ratio) |
| --- | --- |
| G10A C22A C79A G120U C123G | -5.58 |
| C49G C64G G120U C124A G135U | -7.53 |
| A5U C104A | -2 |
| C20U G93A | -1.32 |
| G23C G120A | -5.95 |
| A6C A105C U130C | -1.78 |
| A46C U92C | -1.97 |
| U14G C56U C70A A83C C104G G110A U116A | -5.43 |
| U9C G35U A50U | -6.01 |
| G10U C11G U14A A37G C76U G93C C102A | -5.35 |
| C40U A84U G117U C123G | -1.94 |
| G63A C79U A95U C101U | -0.75 |
| C72U C114U C115U | -7 |
| C79A U92C G110C U125G | -5.23 |
| C13G C89A A90C U130C | -3.77 |
| C70A C94U | -1.23 |
| C12U G63U A68C C123U | -4.7 |
| G52A C72A | 0.151 |
| U7A C53A | -0.0334 |
| C15A G25C C34G C64U G113A | -7.48 |
| G63C G113C | -3.38 |

| Variant | polymerase ribozyme fitness (log ratio) |
| --- | --- |
| C88G C114U | -1.84 |
| G52A U92A C98U A119U C124A | -3.81 |
| G52C C70A G117U G120U | -4.71 |
| C3A U9G C40U G57U A105G | -4.58 |
| C12U A41U A66U | -2.82 |
| G10A C56U | 0.385 |
| C72G C114G U130G U133A | -3.37 |
| C13U C20U | -0.561 |
| A84U U112A | 0.956 |
| C12A C49G U109C A111U | -6.35 |
| G47U G77U U106G | -3.7 |
| G63U G120U U126A | -1.69 |
| C8A C80A | -1.88 |
| C13G G113U | -2.94 |
| U59G C72U C82A G110A | -1.21 |
| C13A C49G G122U C124G | -0.569 |
| C15A G42A C56A G69U A100C U132A | -4.53 |
| G39U G48C U78G G113U | -4.42 |
| C15U A90U | -2.96 |
| G45A C53G U59G C104A U112A | -0.739 |
| C31A A46U C72A | -5.82 |

| Variant | polymerase ribozyme fitness (log ratio) |
| --- | --- |
| C22G G36A G47C A119U C124G | -3.6 |
| A18C G77C | -2.76 |
| U7G A18G C20A A43G C72G | -5.03 |
| U9G C11A U78C | -0.41 |
| A41G C76U | -0.163 |
| G42A G63C | -2.96 |
| C22U G71C | -4.89 |
| U9C G69U U78G A103U | -1.88 |
| U38A C70U | -1.15 |
| C49G C89A A111C A118C U129A U134G | -5.22 |
| C56A A95C C102A | -3.39 |
| A26U A50U C124G | -2.5 |
| G10U G71U C94A | -1.09 |
| U7G U14A C56U U78C A84C C101A | -1.53 |
| C3G G120C | -0.918 |
| C8U U21A C56U C114A G128A | -2.5 |
| G47U G58C C73G C104U A121U | -5.16 |
| A43U C56U | -1.59 |
| C12A G42U G60A U87A G113A | -4.01 |
| A29C C124A | -0.296 |

Source: the RNAGym collection of RNA variant scans (doi:10.1073/pnas.2313332121)
